Consider 1 substance from paper PMC5760085.

Assay [1] deals with Aleuria aurantia lectin (Aleuria aurantia) (UniProt P18891). Nature of the assay: BLI; biotinylated AAL (1.5 μg/mL) loaded on High Precision Streptavidin (SAX) biosensors, mucin in solution; Octet RED96, kinetics mode, 25°C, 1000 rpm, sample diluent. For orientation: Biolayer interferometry detects binding as a change in optical thickness at a sensor tip.
Assay [2] shares this target. In words: BLI; competition with L-Fuc: AAL-loaded biosensor blocked with 0.1 M L-Fuc in the second baseline step, and the mucin sample incubated with L-Fuc (BSM 1 μM to 0.1 M; MUC5B 1 μM to 100 μM).

Sequence of UniProt P18891 (P18891 whole entry): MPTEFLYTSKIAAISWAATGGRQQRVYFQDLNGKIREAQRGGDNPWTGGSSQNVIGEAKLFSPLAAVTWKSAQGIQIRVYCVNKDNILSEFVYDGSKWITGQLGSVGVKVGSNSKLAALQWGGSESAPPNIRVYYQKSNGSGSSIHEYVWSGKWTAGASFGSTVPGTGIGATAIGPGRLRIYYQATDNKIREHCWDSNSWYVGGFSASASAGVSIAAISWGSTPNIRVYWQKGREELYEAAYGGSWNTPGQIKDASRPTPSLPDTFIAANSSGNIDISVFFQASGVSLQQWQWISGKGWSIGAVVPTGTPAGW

In turn, “Bovine Submaxillary Mucin (natural protein)” registered a fold lower binding response than MUC5B in assay [1] of 10 times lower. In addition, the fold lower association with 100 μM Fuc than without Fuc in assay [2] came to 5 times lower.
